Results on one molecule are retold here after patent US20250084143A1 (INSERM INSTITUT NATIONAL DE LA SANT ET DE LA RECHERCHE M …, published 2025).

In this assay the target is T1, biotin-tagged HLA-A*03:01 monomers (immunAware) (human, biotin tag).
T1 construct: Bought recombinant monomer folded with the test peptide; also called HLA-A3; A3
Nature of the assay: flow cytometry on streptavidin beads: folding of biotinylated HLA-A*03:01 monomer around the peptide, detected with anti-b2m; 1.2 nM complex. In general terms: Flow cytometry measures light scatter and fluorescence of single cells or particles in a stream.

Method: Experimental binding to HLA-A3 was measured by flow cytometry using biotin-tagged HLA-A*03:01 monomers (immunAware). […] The bead-associated fluorescence is only detected if the test peptide supports the folding of the HLA-A3 complex. […] The HLA-A3-binding peptide Flu NP₂₆₅₋₂₇₃ ([sequence]), and a non-binding peptide CHGA₃₈₂₋₃₉₀ ([sequence]) were included as positive and negative controls, respectively.
A first selection was performed based on a novel HLA Class I binding assay that we set up. Briefly, the same biotinylated recombinant HLA-A3 monomeric molecules that are used for MMr production are folded with the test peptides and captured on streptavidin-coated beads.

RLKPSLVGK (From the SCG5-009 mRNA splice variant) [SCG5-009 193-201 peptide]: the binding result is reported as “binds”.
